pKd: −log10 of the molar value.
Target: TAMRA-labeled M9-NLS of hnRNPA2 WT peptide (human)
Assay: fluorescence polarisation

Question: With “Karyopherin-β2 WT (from UniProt Q92973 1-898) (receptor)” as the substance, how does the pKd read?
Answer: 7.02

Source: publication doi:10.1101/2021.04.08.21254942
